{
  "source": "paper PMC3068233",
  "key": {"[1]": {"target": "T1, HMGB1 domain A wild type (UniProt P09429 9-79)", "T1 sequence": "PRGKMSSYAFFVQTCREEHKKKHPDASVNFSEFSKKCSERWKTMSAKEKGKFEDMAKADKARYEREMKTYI", "experiment": "EMSA"}, "[2]": {"target": "T2, HMGB1 domain A C22A (UniProt P09429 9-79, C23A)", "T2 sequence": "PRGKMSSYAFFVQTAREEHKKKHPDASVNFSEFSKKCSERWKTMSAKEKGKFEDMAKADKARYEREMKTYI", "experiment": "EMSA"}, "[3]": {"target": "T3, HMGB1 domain A C22S/C44S (UniProt P09429 9-79, C23S;C45S)", "T3 sequence": "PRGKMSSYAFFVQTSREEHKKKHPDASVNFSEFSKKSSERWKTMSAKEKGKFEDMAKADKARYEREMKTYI", "experiment": "EMSA"}, "[4]": {"target": "T4, HMGB1 domain A C44S (UniProt P09429 9-79, C45S)", "T4 sequence": "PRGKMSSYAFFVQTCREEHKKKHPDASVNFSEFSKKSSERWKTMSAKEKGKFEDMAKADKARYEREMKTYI", "experiment": "EMSA"}, "[5]": {"target": "T5, HMGB1 domain A C44A (UniProt P09429 9-79, C45A)", "T5 sequence": "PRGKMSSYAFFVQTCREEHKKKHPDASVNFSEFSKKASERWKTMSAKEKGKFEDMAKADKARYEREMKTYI", "experiment": "EMSA"}, "[6]": {"target": "T6, HMGB1 domain A C22A/C44A (UniProt P09429 9-79, C23A;C45A)", "T6 sequence": "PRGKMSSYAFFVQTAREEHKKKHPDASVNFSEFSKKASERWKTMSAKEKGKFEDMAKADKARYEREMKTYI", "experiment": "hydroxyl radical footprinting"}},
  "data": [
    {"binder": "25-bp cisplatin-modified TGGA probe (dsDNA, cisplatin 1,2-d(GpG) intrastrand cross-link at N7 of G13 and G14 of strand 1) DNA 1: CCTCTCCTCTCTGGATCTTCTCTCC DNA 2: GGAGAGAAGATCCAGAGAGGAGAGG", "values": [
      {"measurement": "Kd", "setting": "[1]", "value": "0.7 ± 0.1", "unit": "nM"},
      {"measurement": "Kd", "setting": "[2]", "value": "1.12 ± 0.14", "unit": "nM"},
      {"measurement": "Kd", "setting": "[3]", "value": "1.65 ± 0.37", "unit": "nM"},
      {"measurement": "Kd", "setting": "[4]", "value": "1.6 ± 0.07", "unit": "nM"},
      {"measurement": "Kd", "setting": "[5]", "value": "2.41 ± 0.31", "unit": "nM"},
      {"measurement": "binding result", "setting": "[6]", "value": "binds"}
    ]}
  ]
}
